Data taken from patent publication US20080102459A1, “Method of Screening Antiobesity Agents” (ASTELLAS PHARMA INC., priority 2004, published 2008).

What was measured:
AGF gene = assay: Amount of AGF gene expressed in C2C12 cells by quantitative PCR; type: cell-based, mouse; settings: 48 hours, compensated by cyclophilin, insulin at 100 nmol/L
Experimental: C2C12 cells (ATCC No.: CRL-1772) were added to a 24-well collagen-coated plate (ASAHI TECHNO GLASS) to become 20000 cells per well, and cultured with a Dulbecco's modified Eagle's medium (DMEM) supplemented with 15% fetal bovine serum, for one day. After insulin (Biomedical Technologies Inc) was added to the medium to a final concentration of 100 nmol/L, or after the medium was changed to the culture supernatant of 3T3-L1 prepared in Example 11, the C2C12 cells were cultured for 48 hours. As a control, the C2C12 cells were cultured with DMEM supplemented with 15% fetal bovine serum for 48 hours, without such treatments. After the cultivation, total RNAs were prepared from treated cells using an RNeasy Mini Kit (Qiagen) in accordance with a protocol attached thereto, and 500 ng thereof was converted to cDNAs using a Thermoscript RT-PCR system kit (Invitrogen).
Amounts of AGF gene expressed in C2C12 cells were measured by a quantitative PCR, using DNAs of SEQ ID NOS: 29 and 30 as primers for amplifying the mouse AGF, cDNAs (derived from culture supernatants of C2C12 cells) prepared in Example 12 as a template, and a sequence detector (ABI PRISM 7900; Applied Biosystems). […]

MAPK p38 = assay: MAPK phosphorylation by AGF stimulation, Western blotting, C2C12 cells differentiated into muscle; type: cell-based, mouse; settings: AGF protein 1 μg/mL, 10 minutes, versus PBS
Experimental: (§1) C2C12 cells were cultured with a growth medium (DMEM supplemented with 10% FCS) in a type I collagen coated 12-well plate to become confluent. After the medium was changed to a differentiation medium (DMEM supplemented with 2% horse serum), the C2C12 cells were cultured for 7 days to differentiate them into muscle. The cells were cultured in a serum-free medium containing 1% BSA, and the medium was changed to the same medium. The AGF protein (final concentration=1 μg/mL) or an equal volume of PBS was added. After 10 minutes, the medium was remove by suction, and the reaction was stopped by adding 50 μL of a solution for cell lysis [50 mmol/L HEPES (pH7.2), 1% Triton X-100, 10% glycerol, 10 mmol/L Na4P2O7, 100 mmol/L NaF, 100 μmol/L Na3VO4, 40 mmol/L EDTA, 50 μg/mL aprotinin, 1 mmol/L phenylmethyl sulfonyl fluoride (PMSF), 0.1 mmol/L leupeptin, and 25 μmol/L pepstatin A] to the cells. To each cell lysate sample obtained, an SDS-sample buffer [20% glycerol, 130 mmol/L Tris-HCl (pH6.8), 10% 2-mercaptoethanol, 6% SDS, and 0.2 mg/mL bromphenol blue] was added, and each sample was subjected to SDS-PAGE and blotted to a polyvinylidene fluoride (PVDF) membrane. Western blotting was carried out, using an anti-phosphorylated MAPK p38 antibody (Cell signaling #9211), an anti-phosphorylated MAPK p42/p44 antibody (Cell signaling #9101), an anti-MAPK p38 antibody (Cell signaling #9212), or an anti-MAPK p42/44 antibody (Cell signaling #9102) as the first antibody and an HRP-labeled anti-mouse IgG antibody (Example 9) as the second antibody, to detect a phosphorylation of MAPK p38, MAPK p42, and MAPK p44. The result of Western blotting was scanned using a scanner, and a concentration of each phosphorylated band was quantitated by an image analyzing software.

MAPK p42 = assay: as above; type: cell-based, mouse; settings: AGF protein 1 μg/mL, 10 minutes, versus PBS
Experimental: as §1

MAPK p44 = assay: as above; type: cell-based, mouse; settings: AGF protein 1 μg/mL, 10 minutes, versus PBS
Experimental: as §1

MAPK [1] = assay: MAPK phosphorylation by AGF stimulation in HUVEC; type: cell-based, human; settings: HUVEC instead of C2C12
MAPK [2] = assay: MAPK phosphorylation by AGF stimulation in ATDC5; type: cell-based; settings: ATDC5 instead of C2C12
ATDC5 cells = assay: Binding of AGF protein to cell line, flow cytometry; settings: protein 10 μg/mL, 4° C., 30 minutes; PI negative cells
Experimental: ATDC5 cells were cultured in a growth medium (DMEM/F12 with 5% FCS) to become subconfluent, and removed from a plate by a cell scraper. The cells were washed twice with an FCM buffer (0.1% BSA/1 mmol/L CaCl2/1 mmol/L MgCl2/PBS), and reacted with or without the mouse AGF protein or the human AGF protein at 4° C. for 30 minutes, at a final concentration of 10 μg/mL of the protein. The cells were washed with the FCM buffer, and reacted with fluorescein isothiocyanate (FITC)-labeled M2 antibody (Sigma) at 4° C. for 30 minutes, at a final concentration of 10 μg/mL. The cells were washed three times with the FCM buffer, and propidium iodide (PI) was added to the cells at a final concentration of 1 μg/mL, to stain death cells. The cells were analyzed using a flow cytometer (Cytomics FC 500; Beckman Coulter, Inc.), and an FITC intensity derived from PI negative cells other than death cells was measured.
Since the FLAG sequence was added to the human AGF protein and the mouse AGF protein, when the M2 antibody specific to the FLAG sequence was used, the FITC-labeled M2 antibody bound to the AGF protein which bound to cells, and thus, the fluorescence intensity of cells to which the AGF protein bound was increased. […]

insulin
induction of AGF expression in comparison with untreated control (AGF gene): approximately 6 times

B1: AGF protein: angiopoietin-related growth factor protein, species not stated in Example 16 (protein, UniProt Q8NI99 21-470, looked up)
Angiopoietin-related protein 6: RAGAPRCTYTFVLPPQKFTGAVCWSGPASTRATPEAANASELAALRMRVGRHEELLRELQRLAAADGAVAGEVRALRKESRGLSARLGQLRAQLQHEAGPGAGPGADLGAEPAAALALLGERVLNASAEAQRAAARFHQLDVKFRELAQLVTQQSSLIARLERLCPGGAGGQQQVLPPPPLVPVVPVRLVGSTSDTSRMLDPAPEPQRDQTQRQQEPMASPMPAGHPAVPTKPVGPWQDCAEARQAGHEQSGVYELRVGRHVVSVWCEQQLEGGGWTVIQRRQDGSVNFFTTWQHYKAGFGRPDGEYWLGLEPVYQLTSRGDHELLVLLEDWGGRGARAHYDGFSLEPESDHYRLRLGQYHGDAGDSLSWHNDKPFSTVDRDRDSYSGNCALYQRGGWWYHACAHSNLNGVWHHGGHYRSRYQDGVYWAEFRGGAYSLRKAAMLIRPLKL
increase of phosphorylation in phosphorylated MAPK p38 (MAPK p38): 1.6 times | increase of phosphorylation in phosphorylated MAPK p42 (MAPK p42): 3.4 times | increase of phosphorylation in phosphorylated MAPK p44 (MAPK p44): 4.3 times | phosphorylation of MAPK (MAPK [1]): promoted | phosphorylation of MAPK (MAPK [2]): promoted

B2: human AGF protein: FLAG-tagged recombinant human angiopoietin-related growth factor purified from HEK293 culture supernatant (protein)
chain: B1 Angiopoietin-related protein 6
modifications: left off: small tags and cut ends
notes: FLAG-tagged recombinant human angiopoietin-related growth factor purified from HEK293 culture supernatant
increase of the fluorescence intensity (FITC-labeled M2 antibody) of cells (ATDC5 cells): 8.1 times

B3: mouse AGF protein: FLAG-tagged recombinant mouse angiopoietin-related growth factor purified from HEK293 culture supernatant (protein)
chain: ARCRVTLVLSPQKATSAVCRSSEATQDSELATLRMRLGRHEELLRALQRRAAEGGALADEVRALREHSLTLNTRLGQLRAQLQQEARAEPDLGAEPAAALGLLAERALDAEAEARRTTARLQQLDAQLREHAQLMSQHSSLLGRLQRACAGPERGQQQVLPLPLAPLVPLSLVGSASNTSRRLDQTPEHQREQSLRQQGPPSSLLPTGHLAVPTRPVGPWRDCAEAHGAGHWQSGVYDLRLGRRVVAVWCEQQQEGGGWTVIQRRQDGSVNFFTNWQHYKAGFGRPEGEYWLGLEPVHQVTSRGDHELLILLEDWGGRAARAHYDSFSLEPESDHYRLRLGQYHGDAGDSLSWHNDKPFSTVDRDRDSYSGNCALYHRGGWWYHACAHSNLNGVWYHGGHYRSRYQDGVYWAEFRGGAYSLKKAVMLTRLVRL
modifications: left off: small tags and cut ends
notes: FLAG-tagged recombinant mouse angiopoietin-related growth factor purified from HEK293 culture supernatant
increase of the fluorescence intensity (FITC-labeled M2 antibody) of cells (ATDC5 cells): 1.5 times
